Test results published in patent publication US8703913B2, “Sensor” (Medical Research Council, priority 2008, dated 2014).
Substitutions are numbered along the chain they refer to. In names and notes the source's numbering stands.

B1: 5-IATR-ParM (WT): wild-type ParM labeled with 5-IATR (conjugate, UniProt P11904 1-320, looked up)
Plasmid segregation protein …: MLVFIDDGSTNIKLQWQESDGTIKQHISPNSFKREWAVSFGDKKVFNYTLNGEQYSFDPISPDAVVTTNIAWQYSDVNVVAVHHALLTSGLPVSEVDIVCTLPLTEYYDRNNQPNTENIERKKANFRKKITLNGGDTFTIKDVKVMPESIPAGYEVLQELDELDSLLIIDLGGTTLDISQVMGKLSGISKIYGDSSLGVSLVTSAVKDALSLARTKGSSYLADDIIIHRKDNNYLKQRINDENKISIVTEAMNEALRKLEQRVLNTLNEFSGYTHVMVIGGGAELICDAVKKHTQIRDERFFKTNNSQYDLVNGMYLIGN
modifications: 5-IATR label
B2: MDCC-ParM (WT): wild-type ParM labeled with MDCC (conjugate, UniProt P11904 1-320, looked up)
Plasmid segregation protein …: B1 Plasmid segregation protein …
modifications: MDCC label
B3: Cy3-ParM (I27C): ParM I27C/C287A labeled with Cy3-maleimide (conjugate, UniProt P11904 1-320, looked up, variant I27C C287A)
Plasmid segregation protein …: B1 Plasmid segregation protein … with I27C, C287A
modifications: Cy3-maleimide label
B4: CPM-ParM (T215C): ParM T215C/C287A labeled with CPM (conjugate, UniProt P11904 1-320, looked up, variant T215C C287A)
Plasmid segregation protein …: B1 Plasmid segregation protein … with T215C, C287A
modifications: CPM label
B5: MDCC-ParM (S204C): ParM S204C/C287A labeled with MDCC (conjugate, UniProt P11904 1-320, looked up, variant S204C C287A)
Plasmid segregation protein …: B1 Plasmid segregation protein … with S204C, C287A
modifications: MDCC label
B6: MDCC-ParM (T215C): ParM T215C/C287A labeled with MDCC (conjugate, UniProt P11904 1-320, looked up, variant T215C C287A)
Plasmid segregation protein …: B1 Plasmid segregation protein … with T215C, C287A
modifications: MDCC label
B7: MPrCC-ParM (T215C): ParM T215C/C287A labeled with MPrCC (conjugate, UniProt P11904 1-320, looked up, variant T215C C287A)
Plasmid segregation protein …: B1 Plasmid segregation protein … with T215C, C287A
modifications: MPrCC label
B8: IDCC-ParM (S204C): ParM S204C/C287A labeled with IDCC (conjugate, UniProt P11904 1-320, looked up, variant S204C C287A)
Plasmid segregation protein …: B1 Plasmid segregation protein … with S204C, C287A
modifications: IDCC label
B9: Acrylodan-ParM (WT): wild-type ParM labeled with acrylodan (conjugate, UniProt P11904 1-320, looked up)
Plasmid segregation protein …: B1 Plasmid segregation protein …
modifications: acrylodan label
B10: IDCC-ParM (D63C): ParM D63C/C287A labeled with IDCC (conjugate, UniProt P11904 1-320, looked up, variant D63C C287A)
Plasmid segregation protein …: B1 Plasmid segregation protein … with D63C, C287A
modifications: IDCC label
B11: IDCC-ParM (WT): wild-type ParM labeled with IDCC (conjugate, UniProt P11904 1-320, looked up)
Plasmid segregation protein …: B1 Plasmid segregation protein …
modifications: IDCC label
B12: Cy3b-ParM (I27C): ParM I27C/C287A labeled with Cy3B-maleimide (conjugate, UniProt P11904 1-320, looked up, variant I27C C287A)
Plasmid segregation protein …: B1 Plasmid segregation protein … with I27C, C287A
modifications: Cy3B label
B13: CPM-ParM (I27C): ParM I27C/C287A labeled with CPM (conjugate, UniProt P11904 1-320, looked up, variant I27C C287A)
Plasmid segregation protein …: B1 Plasmid segregation protein … with I27C, C287A
modifications: CPM label
B14: MDCC-ParM (D58C): ParM D58C/C287A labeled with MDCC (conjugate, UniProt P11904 1-320, looked up, variant D58C C287A)
Plasmid segregation protein …: B1 Plasmid segregation protein … with D58C, C287A
modifications: MDCC label
B15: 5-IATR-ParM (D58C) (conjugate, UniProt P11904 1-320, looked up, variant D58C)
Plasmid segregation protein …: B1 Plasmid segregation protein … with D58C
modifications: 5-IATR rhodamine label
B16: MIANS-ParM (I27C): ParM I27C/C287A labeled with MIANS (conjugate, UniProt P11904 1-320, looked up, variant I27C C287A)
Plasmid segregation protein …: B1 Plasmid segregation protein … with I27C, C287A
modifications: MIANS label
B17: 6-IATR-ParM (WT): wild-type ParM labeled with 6-IATR (conjugate, UniProt P11904 1-320, looked up)
Plasmid segregation protein …: B1 Plasmid segregation protein …
modifications: 6-IATR label
B18: IDCC-ParM (T215C): ParM T215C/C287A labeled with IDCC (conjugate, UniProt P11904 1-320, looked up, variant T215C C287A)
Plasmid segregation protein …: B1 Plasmid segregation protein … with T215C, C287A
modifications: IDCC label
B19: 5-IATR-ParM (I27C) (conjugate, UniProt P11904 1-320, looked up, variant I27C)
Plasmid segregation protein …: B1 Plasmid segregation protein … with I27C
modifications: 5-IATR rhodamine label
B20: CPM-ParM (S204C): ParM S204C/C287A labeled with CPM (conjugate, UniProt P11904 1-320, looked up, variant S204C C287A)
Plasmid segregation protein …: B1 Plasmid segregation protein … with S204C, C287A
modifications: CPM label
B21: IDCC-ParM (I27C): ParM I27C/C287A labeled with IDCC (conjugate, UniProt P11904 1-320, looked up, variant I27C C287A)
Plasmid segregation protein …: B1 Plasmid segregation protein … with I27C, C287A
modifications: IDCC label
B22: MIANS-ParM (WT): wild-type ParM labeled with MIANS (conjugate, UniProt P11904 1-320, looked up)
Plasmid segregation protein …: B1 Plasmid segregation protein …
modifications: MIANS label
B23: MPrCC-ParM (I27C): ParM I27C/C287A labeled with MPrCC (conjugate, UniProt P11904 1-320, looked up, variant I27C C287A)
Plasmid segregation protein …: B1 Plasmid segregation protein … with I27C, C287A
modifications: MPrCC label
B24: MDCC-ParM (D63C): ParM D63C/C287A labeled with MDCC (conjugate, UniProt P11904 1-320, looked up, variant D63C C287A)
Plasmid segregation protein …: B1 Plasmid segregation protein … with D63C, C287A
modifications: MDCC label
B25: MIANS-ParM (S204C): ParM S204C/C287A labeled with MIANS (conjugate, UniProt P11904 1-320, looked up, variant S204C C287A)
Plasmid segregation protein …: B1 Plasmid segregation protein … with S204C, C287A
modifications: MIANS label
B26: IDCC-ParM (D58C): ParM D58C/C287A labeled with IDCC (conjugate, UniProt P11904 1-320, looked up, variant D58C C287A)
Plasmid segregation protein …: B1 Plasmid segregation protein … with D58C, C287A
modifications: IDCC label
B27: Alexa 488-ParM (I27C): ParM I27C/C287A labeled with AlexaFluor-488-maleimide (conjugate, UniProt P11904 1-320, looked up, variant I27C C287A)
Plasmid segregation protein …: B1 Plasmid segregation protein … with I27C, C287A
modifications: Alexa Fluor 488 label
B28: 5-IATR-ParM (D63C) (conjugate, UniProt P11904 1-320, looked up, variant D63C)
Plasmid segregation protein …: B1 Plasmid segregation protein … with D63C
modifications: 5-IATR rhodamine label

Test: Screening mutant/fluorophore combinations for a fluorescence response to ADP
Settings: ParM mutant/fluorophore combination

Molecule	Fluorescence change, ratio of the intensity in presence of 1 mM ADP to that in the absence of ADP
B1	0.74
B2	0.27
B3	1.2
B4	0.76
B5	0.68
B6	0.74
B7	0.78
B8	0.80
B9	0.59
B10	0.53
B11	0.34
B12	0.83
B13	0.62
B14	0.82
B15	0.83
B16	0.72
B17	0.70
B18	0.74
B19	1.3
B20	0.62
B21	1.5
B22	0.50
B23	1.1
B24	0.48
B25	0.91
B26	0.93
B27	0.78
B28	0.80
